The text below walks through data of patent US20180312565A1 (Affibody, published 2018).

For test [1], the target named is T1, PD-L1 on PD-L1 expressing cells (IFNg-stimulated THP-1 cells; MDA-MB-231 cells) (UniProt Q9NZQ7 19-290, limits assumed).
T1 construct: whole, on cells
The test is described as follows: FACS, MDA-MB-231 cells, 0.625 µg/ml; negative control (buffer) 69. The procedure:
Cells incubated with buffer alone were used as negative controls. The cells were incubated for 1 h at 8° C. in the dark, washed twice with 100 μl staining buffer, and resuspended in 100 μl of staining buffer containing 2.5 μg/ml of a goat-anti-human IgG-Alexa488 (Molecular Probes, cat. no. A11013) or, for cells stained with the positive control antibody, goat anti-mouse IgG-Alexa647 antibody (Life Technologies, cat. No. A21236). The cells were incubated for 1 h at 8° C. in the dark, washed twice with 100 μl staining buffer and resuspended in 300 μl of staining buffer. Data from 10,000 cells were obtained using a FACS Calibur ([…]) and the data was analyzed using Flowing software 2.5.0 (Turku University). Mean fluorescence intensity (MFI) was used as a read out of binding capacity.

For test [2], the target named is T2, human PD-L1 Fc Chimera (R&D Systems, cat. no. 156-B7-100) (human, UniProt Q9NZQ7 19-239, biotinylated with Sulfo-NHS-LC-Biotin in ELISA and AlphaLISA; not biotinylated in SPR).
T2 construct: bought; also called hPD-L1; biotinylated hPD-L1; not shown: Fc part of the bought Fc chimera, not described
The test is described as follows: SPR capture assay, control.

T1 sequence (Q9NZQ7 19-290 limits assumed): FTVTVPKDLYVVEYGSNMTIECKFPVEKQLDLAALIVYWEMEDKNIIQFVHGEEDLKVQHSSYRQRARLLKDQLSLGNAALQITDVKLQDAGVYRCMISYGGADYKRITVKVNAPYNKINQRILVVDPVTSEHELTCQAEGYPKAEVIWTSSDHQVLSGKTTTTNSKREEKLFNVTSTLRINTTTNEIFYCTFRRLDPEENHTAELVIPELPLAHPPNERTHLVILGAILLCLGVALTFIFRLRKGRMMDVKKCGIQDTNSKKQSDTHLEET
T2 sequence (Q9NZQ7 19-239, change not shown): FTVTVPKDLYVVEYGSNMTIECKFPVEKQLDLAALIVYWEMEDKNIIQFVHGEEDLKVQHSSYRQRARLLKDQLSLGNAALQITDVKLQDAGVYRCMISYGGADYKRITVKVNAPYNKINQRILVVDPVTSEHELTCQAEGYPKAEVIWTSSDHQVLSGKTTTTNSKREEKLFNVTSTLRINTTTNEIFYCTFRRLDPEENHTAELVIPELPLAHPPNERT

B1: ipilimumab (Yervoy, Bristol-Myers Squibb) (antibody, V domains shown)
VH: QVQLVESGGGVVQPGRSLRLSCAASGFTFSSYTMHWVRQAPGKGLEWVTFISYDGNNKYYADSVKGRFTISRDNSKNTLYLQMNSLRAEDTAIYYCARTGWLGPFDYWGQGTLVTVSS
VL: not shown
The molecule B1 displayed an MFI in test [1] of 64.

B2: Lam (PD-1 binding monoclonal antibody with the CDR sequences of pembrolizumab) (antibody, human IgG4 S228P, kappa, V domains shown)
VH: QVQLVQSGVEVKKPGASVKVSCKASGYTFTNYYMYWVRQAPGQGLEWMGGINPSNGGTNFNEKFKNRVTLTTDSSTTTAYMELKSLQFDDTAVYYCARRDYRFDMGFDYWGQGTTVTVSS
VL: EIVLTQSPATLSLSPGERATLSCRASKGVSTSGYSYLHWYQQKPGQAPRLLIYLASYLESGVPARFSGSGSGTDFTLTISSLEPEDFAVYYCQHSRDLPLTFGGGTKVEIKR
B2: in test [2], the binding result is given as “no binding (tested: 100 or 500 nM PD-L1)”.

B3: Z15170-HCLam (bispecific antibody)
heavy: not shown
light: EIVLTQSPATLSLSPGERATLSCRASKGVSTSGYSYLHWYQQKPGQAPRLLIYLASYLESGVPARFSGSGSGTDFTLTISSLEPEDFAVYYCQHSRDLPLTFGGGTKVEIKRTVAAPSVFIFPPSDEQLKSGTASVVCLLNNFYPREAKVQWKVDNALQSGNSQESVTEQDSKDSTYSLSSTLTLSKADYEKHKVYACEVTHQGLSSPVTKSFNRGEC
Molecule B3 registered an MFI in test [1] of 161.

B4: HCLam-Z15170 (bispecific antibody)
heavy: not shown
light: B3 light
B4 came in with an MFI in test [1] of 274.
